Data taken from patent publication US20140072613A1, “Compositions and Methods for Treating Cutaneous Scarring” (priority 2012, published 2014).

What was measured:
Assay in all cases: cell-based or functional assay
6SK3β(h) (human) = 6SK3β(h) (human) (UniProt P49841)
Abl(T315I)(h) (human) = Abl(T315I)(h) (human) (UniProt P00519)
Aurora-B(h) (human) = Aurora-B(h) (human) (UniProt Q96GD4)
BrSK1(h) (human) = target: T1, BrSK1(h) (human) (UniProt Q8TDC3)
T1 sequence (looked up): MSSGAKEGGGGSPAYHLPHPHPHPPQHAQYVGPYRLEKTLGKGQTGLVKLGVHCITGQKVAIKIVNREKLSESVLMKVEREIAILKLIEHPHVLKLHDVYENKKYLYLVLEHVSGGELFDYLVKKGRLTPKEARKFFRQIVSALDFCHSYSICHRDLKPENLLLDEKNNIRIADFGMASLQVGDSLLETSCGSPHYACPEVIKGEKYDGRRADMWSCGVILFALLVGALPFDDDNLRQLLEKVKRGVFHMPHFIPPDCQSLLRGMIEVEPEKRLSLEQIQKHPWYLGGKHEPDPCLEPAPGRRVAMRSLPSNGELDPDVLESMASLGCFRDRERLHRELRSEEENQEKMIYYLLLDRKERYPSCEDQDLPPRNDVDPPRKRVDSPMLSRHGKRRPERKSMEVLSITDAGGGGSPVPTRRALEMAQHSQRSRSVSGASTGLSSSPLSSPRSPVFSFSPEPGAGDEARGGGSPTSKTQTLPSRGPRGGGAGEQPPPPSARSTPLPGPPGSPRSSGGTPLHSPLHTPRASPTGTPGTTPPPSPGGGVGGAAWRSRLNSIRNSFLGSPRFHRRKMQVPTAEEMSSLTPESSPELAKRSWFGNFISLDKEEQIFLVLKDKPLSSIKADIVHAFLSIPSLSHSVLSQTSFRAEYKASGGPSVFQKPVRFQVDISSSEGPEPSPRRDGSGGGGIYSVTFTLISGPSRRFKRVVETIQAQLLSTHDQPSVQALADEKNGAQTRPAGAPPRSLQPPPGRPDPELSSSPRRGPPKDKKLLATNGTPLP

CDK1/cyclinB(h) (human) = CDK1/cyclinB(h) (human) (UniProt P06493)
CDK6/cyclinD3(h) (human) = CDK6/cyclinD3(h) (human) (UniProt Q00534)
CaMKI(h) (human) = CaMKI(h) (human) (UniProt Q14012)
CaMKIV(h) (human) = CaMKIV(h) (human) (UniProt Q16566)
DMPK(h) (human) = DMPK(h) (human) (UniProt Q09013)
EphB3(h) (human) = EphB3(h) (human) (UniProt P54753)
ErbB4(h) (human) = ErbB4(h) (human) (UniProt Q15303)
GRK6(h) (human) = GRK6(h) (human) (UniProt P43250)
LKB1(h) (human) = target: T2, LKB1(h) (human) (UniProt Q15831)
T2 sequence (looked up): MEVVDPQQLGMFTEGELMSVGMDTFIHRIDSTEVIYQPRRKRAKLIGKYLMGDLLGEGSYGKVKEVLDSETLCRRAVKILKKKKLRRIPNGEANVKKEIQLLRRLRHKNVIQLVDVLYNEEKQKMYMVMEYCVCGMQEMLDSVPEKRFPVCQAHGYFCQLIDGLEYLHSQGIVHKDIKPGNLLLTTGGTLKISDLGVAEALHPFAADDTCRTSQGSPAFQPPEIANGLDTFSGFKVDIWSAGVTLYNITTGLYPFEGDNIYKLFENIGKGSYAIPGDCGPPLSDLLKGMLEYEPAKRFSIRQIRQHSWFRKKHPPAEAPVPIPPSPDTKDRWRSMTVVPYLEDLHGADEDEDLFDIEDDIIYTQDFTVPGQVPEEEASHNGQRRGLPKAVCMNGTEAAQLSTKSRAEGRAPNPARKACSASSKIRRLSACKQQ

MRCKα(h) (human) = MRCKα(h) (human) (UniProt Q5VT25)
PAR-1Bα(h) (human) = PAR-1Bα(h) (human) (UniProt Q7KZI7)
PKCγ(h) (human) = PKCγ(h) (human) (UniProt P05129)
PRAK(h) (human) = PRAK(h) (human) (UniProt Q8IW41)
Plk3(h) (human) = Plk3(h) (human) (UniProt Q9H4B4)
Pyk2 (h) (human) = Pyk2 (h) (human) (UniProt Q14289)
Ros(h) (human) = Ros(h) (human) (UniProt P08922)
SGK(h) (human) = SGK(h) (human) (UniProt O00141)
TBK1(h) (human) = target: T3, TBK1(h) (human) (UniProt Q9UHD2)
T3 sequence (looked up): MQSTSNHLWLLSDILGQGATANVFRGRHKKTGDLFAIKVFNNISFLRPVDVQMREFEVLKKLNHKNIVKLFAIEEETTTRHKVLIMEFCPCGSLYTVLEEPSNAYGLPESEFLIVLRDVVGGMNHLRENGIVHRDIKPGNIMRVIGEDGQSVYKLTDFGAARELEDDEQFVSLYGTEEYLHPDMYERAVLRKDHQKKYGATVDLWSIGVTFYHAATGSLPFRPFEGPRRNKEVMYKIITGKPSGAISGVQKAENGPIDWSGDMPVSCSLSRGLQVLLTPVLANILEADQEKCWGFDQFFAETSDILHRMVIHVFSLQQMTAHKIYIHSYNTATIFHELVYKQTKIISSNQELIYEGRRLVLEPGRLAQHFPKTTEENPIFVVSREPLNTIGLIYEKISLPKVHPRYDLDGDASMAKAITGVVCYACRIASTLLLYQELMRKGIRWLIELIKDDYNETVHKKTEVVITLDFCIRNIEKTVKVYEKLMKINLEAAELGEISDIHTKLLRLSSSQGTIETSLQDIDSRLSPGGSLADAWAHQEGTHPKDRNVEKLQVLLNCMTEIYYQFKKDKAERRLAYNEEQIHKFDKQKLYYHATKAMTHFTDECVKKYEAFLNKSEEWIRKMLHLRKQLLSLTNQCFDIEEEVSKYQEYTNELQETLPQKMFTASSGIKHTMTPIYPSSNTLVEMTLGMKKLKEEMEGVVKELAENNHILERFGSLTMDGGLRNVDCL

VRK2(h) (human) = VRK2(h) (human) (UniProt Q86Y07)
cSRC(h) (human) = cSRC(h) (human) (UniProt P12931)

Sequence of CaMKI(h) (human) (Q14012 whole entry): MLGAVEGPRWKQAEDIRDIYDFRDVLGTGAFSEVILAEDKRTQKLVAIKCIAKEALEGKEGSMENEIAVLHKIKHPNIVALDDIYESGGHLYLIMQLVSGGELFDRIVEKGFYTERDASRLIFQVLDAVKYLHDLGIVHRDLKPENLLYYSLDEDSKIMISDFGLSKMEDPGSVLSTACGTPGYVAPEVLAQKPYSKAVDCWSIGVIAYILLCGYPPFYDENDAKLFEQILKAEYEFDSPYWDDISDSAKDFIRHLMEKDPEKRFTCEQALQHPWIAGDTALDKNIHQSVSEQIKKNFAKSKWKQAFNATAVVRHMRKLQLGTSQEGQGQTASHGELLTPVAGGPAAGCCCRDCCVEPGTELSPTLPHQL
Sequence of CaMKIV(h) (human) (Q16566 whole entry): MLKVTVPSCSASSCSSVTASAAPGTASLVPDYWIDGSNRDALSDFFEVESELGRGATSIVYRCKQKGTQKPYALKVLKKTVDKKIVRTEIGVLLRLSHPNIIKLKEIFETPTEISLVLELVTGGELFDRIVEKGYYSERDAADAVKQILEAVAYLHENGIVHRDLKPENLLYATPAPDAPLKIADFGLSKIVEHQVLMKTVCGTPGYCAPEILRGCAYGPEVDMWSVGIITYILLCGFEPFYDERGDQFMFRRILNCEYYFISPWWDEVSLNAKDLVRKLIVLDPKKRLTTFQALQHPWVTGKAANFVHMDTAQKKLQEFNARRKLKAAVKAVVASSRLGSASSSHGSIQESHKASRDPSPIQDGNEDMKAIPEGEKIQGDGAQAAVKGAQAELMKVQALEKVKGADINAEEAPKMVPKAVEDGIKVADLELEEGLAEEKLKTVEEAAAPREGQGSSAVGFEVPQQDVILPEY
Sequence of VRK2(h) (human) (Q86Y07 whole entry): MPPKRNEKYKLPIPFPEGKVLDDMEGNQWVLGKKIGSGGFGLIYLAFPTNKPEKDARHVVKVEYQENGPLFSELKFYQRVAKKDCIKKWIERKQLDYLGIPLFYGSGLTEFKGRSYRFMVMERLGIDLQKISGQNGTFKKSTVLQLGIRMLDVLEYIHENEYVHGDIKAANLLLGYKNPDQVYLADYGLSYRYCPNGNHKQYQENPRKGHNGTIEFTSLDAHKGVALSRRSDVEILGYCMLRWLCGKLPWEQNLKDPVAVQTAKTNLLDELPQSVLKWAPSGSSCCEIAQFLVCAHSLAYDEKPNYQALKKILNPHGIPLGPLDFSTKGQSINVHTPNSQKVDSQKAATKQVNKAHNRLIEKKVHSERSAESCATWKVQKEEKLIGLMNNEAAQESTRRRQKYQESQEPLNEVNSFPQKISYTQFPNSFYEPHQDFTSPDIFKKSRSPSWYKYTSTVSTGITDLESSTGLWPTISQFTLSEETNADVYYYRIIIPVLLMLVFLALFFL
Sequence of PRAK(h) (human) (Q8IW41 whole entry): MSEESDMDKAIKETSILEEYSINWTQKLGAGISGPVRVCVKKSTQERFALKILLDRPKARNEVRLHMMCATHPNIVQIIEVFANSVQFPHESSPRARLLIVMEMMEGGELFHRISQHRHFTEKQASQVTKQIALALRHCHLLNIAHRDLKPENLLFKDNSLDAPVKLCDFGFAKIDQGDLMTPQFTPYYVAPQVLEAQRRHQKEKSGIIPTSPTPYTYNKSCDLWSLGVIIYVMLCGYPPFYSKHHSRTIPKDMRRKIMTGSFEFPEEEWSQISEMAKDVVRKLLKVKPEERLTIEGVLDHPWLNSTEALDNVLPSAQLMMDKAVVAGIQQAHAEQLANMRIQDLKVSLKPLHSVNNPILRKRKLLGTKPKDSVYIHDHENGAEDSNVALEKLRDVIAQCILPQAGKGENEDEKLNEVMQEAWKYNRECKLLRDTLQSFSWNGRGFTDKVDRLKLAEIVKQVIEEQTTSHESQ
Sequence of CDK6/cyclinD3(h) (human) (Q00534 whole entry, chain 1 of 2): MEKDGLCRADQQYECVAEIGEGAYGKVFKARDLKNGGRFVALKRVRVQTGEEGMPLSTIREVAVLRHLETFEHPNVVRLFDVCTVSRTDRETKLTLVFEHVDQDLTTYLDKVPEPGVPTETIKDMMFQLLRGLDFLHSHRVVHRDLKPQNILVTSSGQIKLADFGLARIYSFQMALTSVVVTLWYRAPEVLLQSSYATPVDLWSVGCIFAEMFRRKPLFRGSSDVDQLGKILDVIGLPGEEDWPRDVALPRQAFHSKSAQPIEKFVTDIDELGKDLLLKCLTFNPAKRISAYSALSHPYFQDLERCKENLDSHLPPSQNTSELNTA
Sequence of CDK6/cyclinD3(h) (human) (P30281 whole entry, chain 2 of 2, further chain): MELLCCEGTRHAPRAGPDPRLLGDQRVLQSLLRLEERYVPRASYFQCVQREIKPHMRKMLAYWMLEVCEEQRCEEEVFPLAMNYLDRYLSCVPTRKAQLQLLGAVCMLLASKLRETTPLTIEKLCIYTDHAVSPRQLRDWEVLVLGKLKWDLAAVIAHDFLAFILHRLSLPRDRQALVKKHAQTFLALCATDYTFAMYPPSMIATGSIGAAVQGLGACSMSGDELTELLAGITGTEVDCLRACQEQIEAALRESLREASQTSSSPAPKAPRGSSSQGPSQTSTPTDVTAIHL
Sequence of DMPK(h) (human) (Q09013 whole entry): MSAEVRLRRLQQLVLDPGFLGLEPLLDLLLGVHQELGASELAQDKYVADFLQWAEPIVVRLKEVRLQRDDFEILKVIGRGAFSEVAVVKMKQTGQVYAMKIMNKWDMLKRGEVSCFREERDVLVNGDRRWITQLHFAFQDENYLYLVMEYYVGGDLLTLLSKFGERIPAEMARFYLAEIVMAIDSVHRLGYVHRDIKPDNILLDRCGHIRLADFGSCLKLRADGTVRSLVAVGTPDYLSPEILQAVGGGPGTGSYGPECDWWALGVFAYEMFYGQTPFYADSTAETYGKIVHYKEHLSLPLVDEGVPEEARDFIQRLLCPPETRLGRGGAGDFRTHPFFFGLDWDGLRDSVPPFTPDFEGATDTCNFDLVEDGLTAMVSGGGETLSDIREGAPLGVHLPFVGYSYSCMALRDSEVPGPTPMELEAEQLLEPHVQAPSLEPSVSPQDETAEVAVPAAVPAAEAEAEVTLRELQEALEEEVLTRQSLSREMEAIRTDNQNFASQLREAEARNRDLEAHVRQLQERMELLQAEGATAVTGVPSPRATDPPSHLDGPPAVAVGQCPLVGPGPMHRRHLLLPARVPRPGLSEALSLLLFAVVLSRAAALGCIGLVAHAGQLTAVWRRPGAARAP
Sequence of Abl(T315I)(h) (human) (P00519 27-1130 T315I limits assumed): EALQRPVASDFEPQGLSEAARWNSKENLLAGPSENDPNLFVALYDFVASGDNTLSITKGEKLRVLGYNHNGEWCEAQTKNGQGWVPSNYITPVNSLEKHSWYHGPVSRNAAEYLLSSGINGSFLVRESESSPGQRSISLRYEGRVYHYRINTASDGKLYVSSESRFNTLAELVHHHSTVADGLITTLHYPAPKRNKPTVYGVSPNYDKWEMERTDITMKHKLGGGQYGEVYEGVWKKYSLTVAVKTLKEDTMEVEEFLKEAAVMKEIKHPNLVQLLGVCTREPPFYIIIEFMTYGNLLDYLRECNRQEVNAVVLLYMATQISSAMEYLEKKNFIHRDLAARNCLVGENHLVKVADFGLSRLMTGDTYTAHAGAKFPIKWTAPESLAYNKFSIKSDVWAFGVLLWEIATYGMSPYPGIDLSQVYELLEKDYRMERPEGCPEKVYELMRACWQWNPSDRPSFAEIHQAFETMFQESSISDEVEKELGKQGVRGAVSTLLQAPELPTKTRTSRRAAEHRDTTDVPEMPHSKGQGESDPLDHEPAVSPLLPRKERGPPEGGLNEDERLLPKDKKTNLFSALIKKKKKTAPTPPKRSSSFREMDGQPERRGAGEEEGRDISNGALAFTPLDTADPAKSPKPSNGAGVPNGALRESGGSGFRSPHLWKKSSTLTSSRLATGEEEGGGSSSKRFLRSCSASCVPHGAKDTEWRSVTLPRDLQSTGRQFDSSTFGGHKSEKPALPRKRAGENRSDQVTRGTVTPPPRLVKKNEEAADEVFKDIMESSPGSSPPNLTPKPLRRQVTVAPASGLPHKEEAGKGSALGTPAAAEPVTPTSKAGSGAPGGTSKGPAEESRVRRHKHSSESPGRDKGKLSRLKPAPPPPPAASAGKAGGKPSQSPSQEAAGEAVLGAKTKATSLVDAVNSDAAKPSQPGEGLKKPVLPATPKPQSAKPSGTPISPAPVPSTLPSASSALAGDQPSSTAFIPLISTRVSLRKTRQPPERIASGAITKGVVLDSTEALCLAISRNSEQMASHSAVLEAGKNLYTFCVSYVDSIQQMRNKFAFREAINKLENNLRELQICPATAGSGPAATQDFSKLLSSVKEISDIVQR

MMI-0500 (peptide)
% activity, 100 µM (6SK3β(h) (human)): 238%
% activity, 100 µM (Abl(T315I)(h) (human)): 16%
% activity, 100 µM (Aurora-B(h) (human)): 5%
% activity, 100 µM (BrSK1(h) (human)): 72%
% activity, 100 µM (CDK1/cyclinB(h) (human)): 57%
% activity, 100 µM (CDK6/cyclinD3(h) (human)): 23%
% activity, 100 µM (CaMKI(h) (human)): -1%
inhibition of kinase activity at 100 µM (CaMKI(h) (human)): > 65%
% activity, 100 µM (CaMKIV(h) (human)): -1%
% activity, 100 µM (DMPK(h) (human)): 12%
% activity, 100 µM (EphB3(h) (human)): 79%
% activity, 100 µM (ErbB4(h) (human)): 2%
% activity, 100 µM (GRK6(h) (human)): 174%
% activity, 100 µM (LKB1(h) (human)): 51%
% activity, 100 µM (MRCKα(h) (human)): 5%
% activity, 100 µM (PAR-1Bα(h) (human)): 97%
% activity, 100 µM (PKCγ(h) (human)): 6%
% activity, 100 µM (PRAK(h) (human)): 95%
% activity, 100 µM (Plk3(h) (human)): 122%
% activity, 100 µM (Pyk2 (h) (human)): 46%
% activity, 100 µM (Ros(h) (human)): 150%
% activity, 100 µM (SGK(h) (human)): 2%
% activity, 100 µM (TBK1(h) (human)): 16%
% activity, 100 µM (VRK2(h) (human)): 169%
% activity, 100 µM (cSRC(h) (human)): 30%
